Results on 1 molecule are retold here after publication PMC5414179, “Functional characterization of a multi-cancer risk locus on chr5p15.33 reveals regulation of TERT by ZNF148”.

The data set addresses T1, ZNF148 (ZBP-89), recombinant (Homo sapiens, UniProt Q9UQR1 1-794).
T1 sequence: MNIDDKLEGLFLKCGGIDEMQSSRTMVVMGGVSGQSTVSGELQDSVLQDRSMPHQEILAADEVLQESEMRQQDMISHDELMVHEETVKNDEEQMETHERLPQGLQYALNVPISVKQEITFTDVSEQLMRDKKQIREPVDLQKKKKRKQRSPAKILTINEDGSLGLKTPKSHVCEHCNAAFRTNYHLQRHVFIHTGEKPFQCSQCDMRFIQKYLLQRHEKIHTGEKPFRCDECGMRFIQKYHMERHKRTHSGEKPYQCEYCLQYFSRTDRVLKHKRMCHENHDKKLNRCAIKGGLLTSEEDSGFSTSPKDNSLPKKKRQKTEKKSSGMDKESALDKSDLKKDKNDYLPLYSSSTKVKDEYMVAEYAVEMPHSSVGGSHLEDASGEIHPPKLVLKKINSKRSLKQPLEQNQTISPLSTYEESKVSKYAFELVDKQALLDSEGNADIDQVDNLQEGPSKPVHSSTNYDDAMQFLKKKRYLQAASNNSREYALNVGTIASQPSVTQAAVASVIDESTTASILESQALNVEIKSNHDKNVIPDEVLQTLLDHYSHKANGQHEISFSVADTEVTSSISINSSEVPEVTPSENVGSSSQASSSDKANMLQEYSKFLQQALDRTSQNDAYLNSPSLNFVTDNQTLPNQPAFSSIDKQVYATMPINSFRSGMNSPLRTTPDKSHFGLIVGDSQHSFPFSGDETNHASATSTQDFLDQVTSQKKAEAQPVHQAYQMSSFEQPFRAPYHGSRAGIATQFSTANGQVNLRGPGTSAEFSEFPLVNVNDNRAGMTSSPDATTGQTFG
In words: EMSA; positive control; EMSA: 10 ug nuclear extract or 90-630 ng recombinant ZNF148 with 3'-biotin probe, 20 min on ice, 4-20% TBE gel; antibody preincubation 20 min at room temperature; buffer, salt and pH not stated. To be noted: protein: commercial; label: 3' biotin; blunt. In general terms: A gel shift assay detects complexes by their altered migration in electrophoresis.

B1: ZNF148 binding motif, CDKN1A/p21 promoter (dsDNA)
DNA 1: CGCAGGCGAGGGACTGGGGGAGGAGGGAAGTGCCC
DNA 2: GGGCACTTCCCTCCTCCCCCAGTCCCTCGCCTGCG
Turning to B1, the binding result is “binds”.
